The results in this text go back to patent US20200123233A1.

The target of test [1] is Rabies virus glycoprotein G, strain CVS-11 (Challenge Virus Standard-11, ATCC VR 959) (Rabies virus, strain CVS-11). The test is described as follows: cell-based or functional assay.
Test [2] addresses Rabies virus glycoprotein G, Challenge Virus Standard (CVS)-11 strain (Rabies virus, strain CVS-11 (genotype 1 Lyssavirus)) (UniProt O92284). The test is described as follows: cell-based or functional assay.

Chain of Rabies virus glycoprotein G, Challenge Virus Standard (CVS)-11 strain (Rabies virus, strain CVS-11 (genotype 1 Lyssavirus)) (O92284 20-524 limits assumed): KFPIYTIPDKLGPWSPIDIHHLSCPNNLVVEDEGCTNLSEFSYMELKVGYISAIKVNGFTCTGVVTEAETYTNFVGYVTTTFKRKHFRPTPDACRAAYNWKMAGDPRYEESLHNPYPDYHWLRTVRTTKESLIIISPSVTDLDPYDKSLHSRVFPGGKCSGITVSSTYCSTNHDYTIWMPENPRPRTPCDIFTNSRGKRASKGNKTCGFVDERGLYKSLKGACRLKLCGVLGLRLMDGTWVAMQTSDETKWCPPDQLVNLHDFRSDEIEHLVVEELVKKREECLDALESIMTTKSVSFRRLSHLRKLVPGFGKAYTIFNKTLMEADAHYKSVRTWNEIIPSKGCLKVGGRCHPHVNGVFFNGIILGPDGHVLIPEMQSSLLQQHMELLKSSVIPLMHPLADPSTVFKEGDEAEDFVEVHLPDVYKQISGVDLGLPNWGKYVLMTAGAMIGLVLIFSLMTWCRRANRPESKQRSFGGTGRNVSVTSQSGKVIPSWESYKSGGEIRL

B1: 213-E6 25GS 214-E8 (VHH)
chain: EVQLVESGGGLVQAGASLRLSCAASGSTLSRYGVGWFRQAPGKERELVASVDWSGSRTYYADSVKGRFTISRDNAKNTGYLQMNSLKPDDTAVYYCAADSSVVPGIEKYDDWGLGTQVTVSSGGGGSGGGGSGGGGSGGGGSGGGGSEVQLVESGGGSVQAGGSLRLSCAASGGTFNPYVMAWFRQAPGNEREFVARIRWSGGDAYYDDSVKGRFAITRDAAKNTVHLQMNSLKPEDTAVYYCAAATYGYGSYTYGGSYDLWGQGTQVTVSS
Regarding B1, in test [1], the CVS neutralizing antibody titre (RFFIT): IU/mg was found to be 657 IU/mg, the CVS neutralizing antibody titre (RFFIT): IU/ml turned out to be 46 IU/ml, the CVS neutralizing antibody titre (RFFIT): IU/nM was 1.84 IU/nM and the CVS neutralizing antibody titre (RFFIT): nM IC50 amounted to 1.68 nM. Moreover, in test [1], the Potency (IU/nM) increase versus monovalent stood at 2.3 fold.

B2: 214-E8 15GS 213-H7 (VHH)
chain: EVQLVESGGGSVQAGGSLRLSCAASGGTFNPYVMAWFRQAPGNEREFVARIRWSGGDAYYDDSVKGRFAITRDAAKNTVHLQMNSLKPEDTAVYYCAAATYGYGSYTYGGSYDLWGQGTQVTVSSGGGGSGGGGSGGGGSEVQLVESGGGLVQAGGSLRLSCAASGRTLSSYRMGWFRQAPGKEREFISTISWNGRSTYYADSVKGRFIFSEDNAKNTVYLQMNSLKPEDTAVYYCAAALIGGYYSDVDAWSYWGPGTQVTVSS
In test [1], B2 yielded a CVS neutralizing antibody titre (RFFIT): IU/mg of 8220 IU/mg, a CVS neutralizing antibody titre (RFFIT): IU/ml of 1890 IU/ml, a CVS neutralizing antibody titre (RFFIT): IU/nM of 230 IU/nM and a CVS neutralizing antibody titre (RFFIT): nM IC50 of 0.14 nM. The molecule also yielded a Potency (IU/nM) increase versus monovalent in test [1] of 605 fold.

B3: 214-E8 15GS 212-C12 (VHH)
chain: EVQLVESGGGSVQAGGSLRLSCAASGGTFNPYVMAWFRQAPGNEREFVARIRWSGGDAYYDDSVKGRFAITRDAAKNTVHLQMNSLKPEDTAVYYCAAATYGYGSYTYGGSYDLWGQGTQVTVSSGGGGSGGGGSGGGGSEVQLVESGGGLVQPGGSLRLSCAASGFTFGSSDMSWVRQAPGKGPEWVSGINSGGGRTLYADSVKGRFTISRDNAKNTLYLQMNSLKSEDTAVYYCATDLYGSSWYTDYWSQGTQVTVSS
With B3, in test [1], the CVS neutralizing antibody titre (RFFIT): IU/mg came to 322 IU/mg, the CVS neutralizing antibody titre (RFFIT): IU/ml was determined as 998 IU/ml, the CVS neutralizing antibody titre (RFFIT): IU/nM worked out at 8.7 IU/nM and the CVS neutralizing antibody titre (RFFIT): nM IC50 was determined as 3.69 nM. Besides, the Potency (IU/nM) increase versus monovalent in test [1] is 8 fold.

B4: 214-E8 25GS 212-C12 (VHH)
chain: EVQLVESGGGSVQAGGSLRLSCAASGGTFNPYVMAWFRQAPGNEREFVARIRWSGGDAYYDDSVKGRFAITRDAAKNTVHLQMNSLKPEDTAVYYCAAATYGYGSYTYGGSYDLWGQGTQVTVSSGGGGSGGGGSGGGGSGGGGSGGGGSEVQLVESGGGLVQPGGSLRLSCAASGFTFGSSDMSWVRQAPGKGPEWVSGINSGGGRTLYADSVKGRFTISRDNAKNTLYLQMNSLKSEDTAVYYCATDLYGSSWYTDYWSQGTQVTVSS
In test [1], B4 showed a CVS neutralizing antibody titre (RFFIT): IU/mg of 573 IU/mg, a CVS neutralizing antibody titre (RFFIT): IU/ml of 70.5 IU/ml, a CVS neutralizing antibody titre (RFFIT): IU/nM of 1.6 IU/nM and a CVS neutralizing antibody titre (RFFIT): nM IC50 of 1.94 nM. In test [1], this molecule returned a Potency (IU/nM) increase versus monovalent of 1.5 fold.

B5: 214-E8 5GS 212-C12 (VHH)
chain: EVQLVESGGGSVQAGGSLRLSCAASGGTFNPYVMAWFRQAPGNEREFVARIRWSGGDAYYDDSVKGRFAITRDAAKNTVHLQMNSLKPEDTAVYYCAAATYGYGSYTYGGSYDLWGQGTQVTVSSGGGGSEVQLVESGGGLVQPGGSLRLSCAASGFTFGSSDMSWVRQAPGKGPEWVSGINSGGGRTLYADSVKGRFTISRDNAKNTLYLQMNSLKSEDTAVYYCATDLYGSSWYTDYWSQGTQVTVSS
In the case of B5, in test [1], the CVS neutralizing antibody titre (RFFIT): IU/mg is 214 IU/mg, the CVS neutralizing antibody titre (RFFIT): IU/ml amounted to 171 IU/ml, the CVS neutralizing antibody titre (RFFIT): IU/nM stood at 5.68 IU/nM and the CVS neutralizing antibody titre (RFFIT): nM IC50 came out at 5.65 nM. The molecule also registered a Potency (IU/nM) increase versus monovalent in test [1] of 5.2 fold.

B6: 214-F8 15GS 214-F8 (VHH)
chain: EVQLVESGGDLVQAGGSLRLSCVASGSTYSINAMGWYRQAPGKLRELVAAFRTGGSTDYADSVKGRFTISRDTAKNTVYLQMNSLKPEDTAVYYCNAEVIYYPYDYWGQGTQVTVSSGGGGSGGGGSGGGGSEVQLVESGGDLVQAGGSLRLSCVASGSTYSINAMGWYRQAPGKLRELVAAFRTGGSTDYADSVKGRFTISRDTAKNTVYLQMNSLKPEDTAVYYCNAEVIYYPYDYWGQGTQVTVSS
In test [1], B6 displayed a CVS neutralizing antibody titre (RFFIT): IU/mg of 650 IU/mg, a CVS neutralizing antibody titre (RFFIT): IU/ml of 13 IU/ml, a CVS neutralizing antibody titre (RFFIT): IU/nM of 17.2 IU/nM and a CVS neutralizing antibody titre (RFFIT): nM IC50 of 1.79 nM. The molecule further registered a Potency (IU/nM) increase versus monovalent in test [1] of 63.7 fold.

B7: LG212B12 (VHH)
VHH: EVQLVESGGGLVQPGGSLRLSCAASGFTFGNYDMSWVRQAPGKGPEWVSGINTGGSTLYADSVKGRFTISRDNAKNTLYLQMNSLKSEDTAVYYCAKDLYGSTWYTDYWSQGTQVTVSS
Take B7: in test [2], the CVS-11 neutralizing antibody titer (RFFIT), IU/mg is 20 IU/mg; the CVS-11 neutralizing antibody titer (RFFIT), IU/ml is 31 IU/ml; the CVS-11 neutralizing antibody titer (RFFIT), IU/µM turned out to be 0.3 IU/µM; the CVS-11 neutralizing antibody titer (RFFIT), nM IC50 was found to be 101 nM.

B8: 213-E6 25GS 213-E6 (VHH)
chain: EVQLVESGGGLVQAGASLRLSCAASGSTLSRYGVGWFRQAPGKERELVASVDWSGSRTYYADSVKGRFTISRDNAKNTGYLQMNSLKPDDTAVYYCAADSSVVPGIEKYDDWGLGTQVTVSSGGGGSGGGGSGGGGSGGGGSGGGGSEVQLVESGGGLVQAGASLRLSCAASGSTLSRYGVGWFRQAPGKERELVASVDWSGSRTYYADSVKGRFTISRDNAKNTGYLQMNSLKPDDTAVYYCAADSSVVPGIEKYDDWGLGTQVTVSS
In test [1], B8 came in with a CVS neutralizing antibody titre (RFFIT): IU/mg of 300 IU/mg, a CVS neutralizing antibody titre (RFFIT): IU/ml of 21 IU/ml, a CVS neutralizing antibody titre (RFFIT): IU/nM of 8.29 IU/nM and a CVS neutralizing antibody titre (RFFIT): nM IC50 of 3.76 nM. The molecule also registered a Potency (IU/nM) increase versus monovalent in test [1] of 6.4 fold.

B9: NB6-18GS-NB6 (VHH)
chain: EVQLVESGGGLVQAGGSLRLSCAASGPTFSADTMGWFRQAPGKEREFVATIPWSGGIAYYSDSVKGRFTMSRDNAKNTVDLQMNSLKPEDTALYYCAGSSRIYIYSDSLSERSYDYWGQGTQVTVSSGGGGSGGGGSGGGGGGGSEVQLVESGGGLVQAGGSLRLSCAASGPTFSADTMGWFRQAPGKEREFVATIPWSGGIAYYSDSVKGRFTMSRDNAKNTVDLQMNSLKPEDTALYYCAGSSRIYIYSDSLSERSYDYWGQGTQVTVSSAAAEQKLISEEDLNGAAHHHHHH
In test [1], B9 came in with a CVS neutralizing antibody titre (RFFIT): IU/mg below 2.38 IU/mg, a CVS neutralizing antibody titre (RFFIT): IU/ml below 0.5 IU/ml, a CVS neutralizing antibody titre (RFFIT): IU/nM below 0.07 IU/nM and a CVS neutralizing antibody titre (RFFIT): nM IC50 above 725 nM.

B10: 213-E6 15GS 213-H7 (VHH)
chain: EVQLVESGGGLVQAGASLRLSCAASGSTLSRYGVGWFRQAPGKERELVASVDWSGSRTYYADSVKGRFTISRDNAKNTGYLQMNSLKPDDTAVYYCAADSSVVPGIEKYDDWGLGTQVTVSSGGGGSGGGGSGGGGSEVQLVESGGGLVQAGGSLRLSCAASGRTLSSYRMGWFRQAPGKEREFISTISWNGRSTYYADSVKGRFIFSEDNAKNTVYLQMNSLKPEDTAVYYCAAALIGGYYSDVDAWSYWGPGTQVTVSS
B10: in test [1], the CVS neutralizing antibody titre (RFFIT): IU/mg stood at 4250 IU/mg, the CVS neutralizing antibody titre (RFFIT): IU/ml worked out at 3760 IU/ml, the CVS neutralizing antibody titre (RFFIT): IU/nM is 93.7 IU/nM and the CVS neutralizing antibody titre (RFFIT): nM IC50 worked out at 0.26 nM. In test [1], the Potency (IU/nM) increase versus monovalent was determined as 107 fold.

B11: 213-E6 5GS 212-C12 (VHH)
chain: EVQLVESGGGLVQAGASLRLSCAASGSTLSRYGVGWFRQAPGKERELVASVDWSGSRTYYADSVKGRFTISRDNAKNTGYLQMNSLKPDDTAVYYCAADSSVVPGIEKYDDWGLGTQVTVSSGGGGSEVQLVESGGGLVQPGGSLRLSCAASGFTFGSSDMSWVRQAPGKGPEWVSGINSGGGRTLYADSVKGRFTISRDNAKNTLYLQMNSLKSEDTAVYYCATDLYGSSWYTDYWSQGTQVTVSS
With B11, in test [1], the CVS neutralizing antibody titre (RFFIT): IU/mg was 385 IU/mg, the CVS neutralizing antibody titre (RFFIT): IU/ml stood at 385 IU/ml, the CVS neutralizing antibody titre (RFFIT): IU/nM is 10 IU/nM and the CVS neutralizing antibody titre (RFFIT): nM IC50 turned out to be 3.21 nM. Further, in test [1], the Potency (IU/nM) increase versus monovalent is 6.3 fold.

B12: LG212C12 (VHH)
VHH: EVQLVESGGGLVQPGGSLRLSCAASGFTFGSSDMSWVRQAPGKGPEWVSGINSGGGRTLYADSVKGRFTISRDNAKNTLYLQMNSLKSEDTAVYYCATDLYGSSWYTDYWSQGTQVTVSS
In test [2], B12 had a CVS-11 neutralizing antibody titer (RFFIT), IU/mg of 308 IU/mg; a CVS-11 neutralizing antibody titer (RFFIT), IU/ml of 394 IU/ml; a CVS-11 neutralizing antibody titer (RFFIT), IU/µM of 4.6 IU/µM; a CVS-11 neutralizing antibody titer (RFFIT), nM IC50 of 7.55 nM.

B13: LG212F6 (VHH)
VHH: EVQLVESGGGLVQPGGSLRLSCAASGFTFGSYDMSWVRQAPGKGSEWVSHINTGGGSTTYADSVKGRFTISRDNAKNTLYLQMSSLKPEDTAVYYCATGLYGGSTDDYWGQGTQVTVSS
For the molecule B13, in test [2], the CVS-11 neutralizing antibody titer (RFFIT), IU/mg came out at 114 IU/mg; the CVS-11 neutralizing antibody titer (RFFIT), IU/ml stood at 122 IU/ml; the CVS-11 neutralizing antibody titer (RFFIT), IU/µM came to 1.71 IU/µM; the CVS-11 neutralizing antibody titer (RFFIT), nM IC50 was 17.7 nM.

B14: 213-E6 25GS 212-C12 (VHH)
chain: EVQLVESGGGLVQAGASLRLSCAASGSTLSRYGVGWFRQAPGKERELVASVDWSGSRTYYADSVKGRFTISRDNAKNTGYLQMNSLKPDDTAVYYCAADSSVVPGIEKYDDWGLGTQVTVSSGGGGSGGGGSGGGGSGGGGSGGGGSEVQLVESGGGLVQPGGSLRLSCAASGFTFGSSDMSWVRQAPGKGPEWVSGINSGGGRTLYADSVKGRFTISRDNAKNTLYLQMNSLKSEDTAVYYCATDLYGSSWYTDYWSQGTQVTVSS
On to B14, for which, in test [1], the CVS neutralizing antibody titre (RFFIT): IU/mg amounted to 248 IU/mg, the CVS neutralizing antibody titre (RFFIT): IU/ml was found to be 1290 IU/ml, the CVS neutralizing antibody titre (RFFIT): IU/nM turned out to be 6.7 IU/nM and the CVS neutralizing antibody titre (RFFIT): nM IC50 came to 4.79 nM. The Potency (IU/nM) increase versus monovalent in test [1] turned out to be 4.2 fold.
